Source: paper PMC3393660, “Structural Interaction and Functional Regulation of Polycystin-2 by Filamin” (PLoS ONE, 2012)
Each block holds one binder with its values, some of them ahead of it.

Columns and labels:
[1] = target: T1, His-FLNBC (human, UniProt O75369 2105-2602); test: pull-down; pre-cleared E. coli extracts (250 µl) with GST-PC2N or GST-PC2C incubated with purified His-FLN C-terminus (2 µg); 150 mM NaCl, 1.0 mM CaCl2, 50 mM Tris pH 7.5, room temperature; glutathione-agarose beads; immunoblot with anti-His; details: one partner purified
T1 construct: Filamin-B, human, C-terminus aa 2105-2602; also called His-tagged FLNBC; not shown: His tag, N-terminal, kept
T1 sequence (looked up): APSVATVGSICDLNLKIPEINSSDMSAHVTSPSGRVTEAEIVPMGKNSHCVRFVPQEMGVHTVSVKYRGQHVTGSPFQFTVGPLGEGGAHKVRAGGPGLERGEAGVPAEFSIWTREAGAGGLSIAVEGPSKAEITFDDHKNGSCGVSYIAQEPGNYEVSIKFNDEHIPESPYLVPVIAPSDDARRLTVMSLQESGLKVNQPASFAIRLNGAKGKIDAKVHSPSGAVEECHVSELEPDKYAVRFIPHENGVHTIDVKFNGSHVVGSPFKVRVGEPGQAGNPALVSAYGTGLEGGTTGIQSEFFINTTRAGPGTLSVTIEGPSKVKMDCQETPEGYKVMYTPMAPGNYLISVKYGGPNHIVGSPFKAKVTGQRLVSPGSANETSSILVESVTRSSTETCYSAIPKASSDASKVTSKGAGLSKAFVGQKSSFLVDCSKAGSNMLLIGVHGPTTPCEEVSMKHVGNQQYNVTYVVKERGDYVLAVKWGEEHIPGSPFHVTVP

[2] = target: T2, His-FLNCC (human, UniProt Q14315 2144-2725); test: as above; details: one partner purified
T2 construct: Filamin-C, human, C-terminus aa A2144-P2725; also called His-tagged FLNCC; not shown: His tag, N-terminal, kept
T2 sequence (looked up): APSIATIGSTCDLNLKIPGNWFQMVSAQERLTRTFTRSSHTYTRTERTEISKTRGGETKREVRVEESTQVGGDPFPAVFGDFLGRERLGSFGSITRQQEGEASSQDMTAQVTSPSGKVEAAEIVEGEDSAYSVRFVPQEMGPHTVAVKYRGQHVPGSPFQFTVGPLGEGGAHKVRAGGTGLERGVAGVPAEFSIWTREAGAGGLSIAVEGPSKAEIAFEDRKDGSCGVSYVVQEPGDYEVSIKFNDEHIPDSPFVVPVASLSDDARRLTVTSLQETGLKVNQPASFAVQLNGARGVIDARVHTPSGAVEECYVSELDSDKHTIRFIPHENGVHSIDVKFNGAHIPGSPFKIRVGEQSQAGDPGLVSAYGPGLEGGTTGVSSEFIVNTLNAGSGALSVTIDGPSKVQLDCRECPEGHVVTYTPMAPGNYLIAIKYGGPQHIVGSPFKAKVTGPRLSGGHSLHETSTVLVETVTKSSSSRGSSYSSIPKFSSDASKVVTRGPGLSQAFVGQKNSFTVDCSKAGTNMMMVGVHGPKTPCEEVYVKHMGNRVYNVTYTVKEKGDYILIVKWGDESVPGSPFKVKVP

[3] = target: T3, His-FLNAC (human, UniProt P21333 2150-2647); test: as above; details: one partner purified
T3 construct: Filamin-A, human, C-terminus aa 2150-2647; also called His-tagged FLNAC; not shown: His tag, N-terminal, kept
T3 sequence (looked up): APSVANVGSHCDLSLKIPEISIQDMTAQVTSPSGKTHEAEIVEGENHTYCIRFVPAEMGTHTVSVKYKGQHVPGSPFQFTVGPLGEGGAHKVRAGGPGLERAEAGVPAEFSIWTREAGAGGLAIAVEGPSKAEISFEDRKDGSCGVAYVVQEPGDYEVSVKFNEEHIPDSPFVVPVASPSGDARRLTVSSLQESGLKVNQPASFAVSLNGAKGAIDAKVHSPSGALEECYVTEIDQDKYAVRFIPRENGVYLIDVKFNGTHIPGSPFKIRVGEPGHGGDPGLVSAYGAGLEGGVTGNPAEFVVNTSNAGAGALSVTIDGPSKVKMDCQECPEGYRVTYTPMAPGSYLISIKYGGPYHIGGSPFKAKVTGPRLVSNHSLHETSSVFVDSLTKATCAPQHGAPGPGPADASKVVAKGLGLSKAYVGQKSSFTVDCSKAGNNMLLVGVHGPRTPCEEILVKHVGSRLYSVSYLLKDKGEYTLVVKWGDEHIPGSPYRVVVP

[4] = target: T3, His-FLNAC; test: pull-down; purified GST fusion protein (2 µg) incubated with purified His-FLN C-terminus (2 µg); 150 mM NaCl, 1.0 mM CaCl2, 50 mM Tris pH 7.5, room temperature; glutathione-agarose beads; immunoblot with anti-His; details: both partners purified

binding result [1]: binds
binding result [2]: binds
binding result [3]: binds
B1: GST-PC2C (domain or fragment, human, UniProt Q13563 682-968, looked up)
chain: DTYSEVKSDLAQQKAEMELSDLIRKGYHKALVKLKLKKNTVDDISESLRQGGGKLNFDELRQDLKGKGHTDAEIEAIFTKYDQDGDQELTEHEHQQMRDDLEKEREDLDLDHSSLPRPMSSRSFPRSLDDSEEDDDEDSGHSSRRRGSISSGVSYEEFQVLVRRVDRMEHSIGSIVSKIDAVIVKLEIMERAKLKRREVLGRLLDGVAEDERLGRDSEIHREQMERLVREELERWESDDAASQISHGLGTPVGLNGQPRPRSSRPSSSQSTEGMEGAGGNGSSNVHV
notes: Polycystin-2, human, C-terminus PC2C, amino acids 682-968; in pGEX5X; also called GST-tagged PC2C; source: E. coli BL21 (DE3), in lysate; also purified (commercial GST purification kit)

binding result [4]: binds
binding result [1]: binds
binding result [2]: binds
B2: GST-PC2N (domain or fragment, human, UniProt Q13563 1-215, looked up)
chain: MVNSSRVQPQQPGDAKRPPAPRAPDPGRLMAGCAAVGASLAAPGGLCEQRGLEIEMQRIRQAAARDPPAGAAASPSPPLSSCSRQAWSRDNPGFEAEEEEEEVEGEEGGMVVEMDVEWRPGSRRSAASSAVSSVGARSRGLGGYHGAGHPSGRRRRREDQGPPCPSPVGGGDPLHRHLPLEGQPPRVAWAERLVRGLRGLWGTRLMEESSTNREK
notes: Polycystin-2, human, N-terminus PC2N, amino acids 1-215; in pGEX5X; also called GST-tagged PC2N; source: E. coli BL21 (DE3), in lysate; also purified (commercial GST purification kit)
